Test results: patent US20120083519

Experiments:
[1] = test system: C-mip protein (c-maf inducing protein), human, full-length
[2] = test system: T1, nephrin (co-expressed in HEK cells)
T1 sequence: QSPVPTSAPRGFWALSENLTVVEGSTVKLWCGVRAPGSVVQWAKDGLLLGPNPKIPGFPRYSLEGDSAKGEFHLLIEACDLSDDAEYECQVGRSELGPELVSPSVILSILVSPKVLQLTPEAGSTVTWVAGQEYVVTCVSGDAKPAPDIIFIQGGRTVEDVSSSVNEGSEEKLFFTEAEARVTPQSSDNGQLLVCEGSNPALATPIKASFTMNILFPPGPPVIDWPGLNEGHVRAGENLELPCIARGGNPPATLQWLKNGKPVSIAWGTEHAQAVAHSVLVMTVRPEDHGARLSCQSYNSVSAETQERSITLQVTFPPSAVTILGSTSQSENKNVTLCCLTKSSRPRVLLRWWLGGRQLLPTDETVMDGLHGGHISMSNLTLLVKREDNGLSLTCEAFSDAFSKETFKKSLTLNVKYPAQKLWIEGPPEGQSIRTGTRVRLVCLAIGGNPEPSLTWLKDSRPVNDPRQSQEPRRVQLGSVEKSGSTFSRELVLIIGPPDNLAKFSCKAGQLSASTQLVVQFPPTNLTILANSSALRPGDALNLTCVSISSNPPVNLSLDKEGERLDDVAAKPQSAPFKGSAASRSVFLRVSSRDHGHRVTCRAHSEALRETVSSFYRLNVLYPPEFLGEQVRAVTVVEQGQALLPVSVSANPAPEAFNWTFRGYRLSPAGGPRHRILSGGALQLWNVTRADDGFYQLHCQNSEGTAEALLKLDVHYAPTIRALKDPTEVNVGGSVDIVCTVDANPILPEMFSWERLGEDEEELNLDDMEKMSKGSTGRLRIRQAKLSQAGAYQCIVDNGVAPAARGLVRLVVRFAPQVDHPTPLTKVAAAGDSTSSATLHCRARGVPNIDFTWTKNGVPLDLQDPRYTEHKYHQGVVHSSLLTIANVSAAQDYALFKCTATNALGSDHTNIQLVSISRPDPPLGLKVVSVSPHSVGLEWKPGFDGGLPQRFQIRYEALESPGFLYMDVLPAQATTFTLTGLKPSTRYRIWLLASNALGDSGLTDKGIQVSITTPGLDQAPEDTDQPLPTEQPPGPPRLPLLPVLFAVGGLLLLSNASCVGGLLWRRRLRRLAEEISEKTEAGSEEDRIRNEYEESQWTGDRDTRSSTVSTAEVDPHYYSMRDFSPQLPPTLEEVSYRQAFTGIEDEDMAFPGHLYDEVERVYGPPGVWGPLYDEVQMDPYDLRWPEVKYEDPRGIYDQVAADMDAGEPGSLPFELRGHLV

Sequence of C-mip protein (c-maf inducing protein), human, full-length (chain, as listed by the source): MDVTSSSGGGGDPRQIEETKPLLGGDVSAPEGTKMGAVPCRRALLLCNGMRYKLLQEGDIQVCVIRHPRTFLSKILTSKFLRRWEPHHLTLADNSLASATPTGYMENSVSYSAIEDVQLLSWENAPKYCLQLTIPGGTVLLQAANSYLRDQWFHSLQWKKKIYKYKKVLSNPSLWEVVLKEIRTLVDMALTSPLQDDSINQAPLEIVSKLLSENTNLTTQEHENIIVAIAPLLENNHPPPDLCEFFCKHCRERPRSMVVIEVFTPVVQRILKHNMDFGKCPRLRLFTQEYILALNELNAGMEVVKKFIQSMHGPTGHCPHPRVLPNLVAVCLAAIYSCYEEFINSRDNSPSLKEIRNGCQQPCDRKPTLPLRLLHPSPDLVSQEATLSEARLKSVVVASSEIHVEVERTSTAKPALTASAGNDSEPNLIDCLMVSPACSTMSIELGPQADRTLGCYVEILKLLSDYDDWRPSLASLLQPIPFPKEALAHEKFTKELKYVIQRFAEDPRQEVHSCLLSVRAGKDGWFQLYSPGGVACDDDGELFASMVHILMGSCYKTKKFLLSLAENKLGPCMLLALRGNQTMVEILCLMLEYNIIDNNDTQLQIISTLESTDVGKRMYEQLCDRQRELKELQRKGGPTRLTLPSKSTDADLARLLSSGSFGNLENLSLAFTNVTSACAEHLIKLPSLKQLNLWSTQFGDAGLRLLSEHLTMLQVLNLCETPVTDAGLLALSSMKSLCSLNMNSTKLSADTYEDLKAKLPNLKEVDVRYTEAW

Substance: Fyn (expressed from Fyn plasmid in HEK 293 cells)
- phosphorylation of nephrin by Fyn at Y1208 [1]: co-expression of c-mip reduced the phosphorylation of nephrin by Fyn at this tyrosine residue
- phosphorylation of nephrin at tyrosine residue Y1208 [2]: Co-expression of nephrin and Fyn induced phosphorylation of nephrin at tyrosine residue Y1208
